The data set deals with the molecule itself. The data set is described as follows: SEC.

B1: N-acetyl sugar amidotransferase from Legionella pneumophila (enzyme)
chain: MSNARIGIDMSKIYAPKSIDLSSFQLPDEKLQTKYGLPHKVEFCKSCVISNQRPNSAVEYEHKKESKKHTIHFDDEGICDACRVAERKKSTINWEERDRQLRELCDRFRSKDGSYDCVVPGSGGKDSFYAAHILKYKYGMNPLTVTWAPHMYTPWGWRNFQSWIHAGFDNHLFTPNGRVHRLLTRLAVENLFHPFQPFMIGQKAYAPKMALLHKIKLVVYGENEAEYGNPIGDTESAKRDWKYFTADDKSKIFLGGTSVQELKSDFGLNDNDLDAYLPADPQQIEEQQVEVHYLGYYLKWHPQSCYYYSVEHGGFEASPERTPGTYSKYNSIDDKIDDFHYYTTLTKFGIGRATYDASQEIRSGDITREEGVALVKRFDQEFPERFAEEIFKYLSINLKEFPIASQMFEQPIMDRAYFMALADTFRSPHLWKKDGEQWKLRHQVTNLEKTKAEYLDLETV
notes: also called LpNASAT; NASAT
Consider B1, for which the “stoichiometry N” value is 2.

These data come from PMC10607449, “Structural Characterization of an N-Acetyl Sugar Amidotransferase Involved in the Lipopolysaccharide Biosynthesis in Bacteria” (International Journal of Molecular Sciences, 2023).
